Measurements reported in the supplement of paper PMC9170038.

Test system: MS2 coat protein
Test: apparent KD of MS2 coat protein, switch ON state; designed switch direction (-1 OFF switch, 1 ON switch): -1; higher = weaker reporter binding
Conditions: FMN input: 0 or 200 uM; Eterna round: R93 (includes R88 designs)
Procedure, shortened: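 Each design's apparent KD comes from the median of binding-curve fits to its normalised clusters. Those clusters carried RNA switches transcribed on-chip from Illumina sequencing clusters. SNAP-549-labelled MS2 coat protein was titrated onto them in twofold steps (0.7 or 1.5 nM to 3 µM; per step 0.8–1.5 h down to 10–20 min). Conditions were 100 mM Tris-HCl pH 7.5, 80 mM KCl, 4 mM MgCl2, without or with constant ligand.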

Sequence | apparent KD of MS2 coat protein
CAAAGGUGAGGAUAUACAAAACUAUGACGAAAGUCAUAAAAACAUGAGGAUCACCCAUGUAGAAGGCACCACAA [E2 64% 2] | 31.6 nM
GAAAACAGAGGAUAUACGGGAUUGACACGAAAAGUGCAAAAACAUGAGGAUCACCCAUGUAGAAGGCUGAAGAA [Meechl MS2... 60% 2] | 31.5 nM
AAUAAGUGAGGAUAUGUGAAUAGUAGAUAAGAUUCCCUAAAACAGAAGGCACAUGAGGAUCACCCAUGUAAAUA [JR_Exc004_Sub008] | 26.2 nM
GGAUGCCAAGGAUAUACAUGAGGAUCACCCAUGUGAGAGAAAAAAGUGAGAAAGAAAAGUAGAAGGUGGUGUCG [salish99-ex3-92] | 33.1 nM
GAAUGACUAGGAUAUACAUGAGGAUCACCCAUGUGUAUAAAUAAAUACACAAAAGAAAGUAGAAGGAGUCAAAG [Mat - Exclusion 3 - Mayanna mod - D124] | 20.8 nM
CUCUUGUCAGGAUAUCCAAGAAAAGAAAAGAAAGAAAAGAAGGAGAAGGGACAUGAGGAUCACCCAUGUAAGAA [EteRNA is fun!] | 72.3 nM
AAAAAGUGAGGAUAUGUCAAAGGUCACGAAAGUGACAAAGGACAGAAGGCACAUGAGGAUCACCCAUGUAAAAA [Fiskers Exclusion 4D1 65% - Early G segment 1] | 37.4 nM
AGCUAGUCAGGAUAUACGAACAUGUCAAAAGACGUGAGGGAACAUGAGGAUCACCCAUGUAGAAGGGACUAGCA [Moving G segment in JL's topscorer (74%)] | 36.6 nM
AAAGGACGAGGAUAUACAUGAGGAUCACCCAUGUAAAAAACAUAAUAAAAGAACUUGUGUAGAAGGCGUCCAAA [Meechl Ex3 2 R2 v6] | 93 nM
AAAACGGUAGGAUAUACAUGAGGAUCACCCAUGUUAAAUUUAAAAAUAAAAUUAAAAUGUAGAAGGACCAAAAA [Mai Tai1] | 31.5 nM
CUCAUGUUAGGAUAUAUAUGAAAUGAAGUGAAAGAAAAGAAAUAGAAGGAACAUGAGGAUCACCCAUGUUAGAA [EteRNA is fun!] | 51 nM
ACAAAGUGAGGAUAUGCUAUCGUACAAUAUAGUUAUCGUAUGCAGAAGGCACAUGAGGAUCACCCAUGUAAGAA [Ex 4 Tesla 9] | 40.7 nM
CUCAAGUUAGGAUAUGAAAGAAAAGAAGAGAAAGAAAAGAAUCAGAAGGAACAUGAGGAUCACCCAUGUAAGAA [EteRNA is fun!] | 29.7 nM
AAGGGACAUGAGGAUCACCCAUGUCAGGAUAUCGGAAAAGGAAAAAAAAAAAAGAAGACGAGAAGGGACACCAA | 28.6 nM
AACAGACAUGAGGAUCACCCAUGUAAGGAUAUCCCAAACGAUAAAACAAGAAUGACAAGGAGAAGGUGCAGCAA [JR_Exc001_Sub006] | 62.8 nM
CAGUACUGAGGAUAUACAUGAGGAUCACCCAUGUAUCAAAGCUAGGAAACUAGCACAUGUAGAAGGCAGUACUG [Ex3: 823] | 25.7 nM
AAGAAGUAAGGAUAUCGGAGAGAACAAGAAAGUGAAGAAUACGAGAAGGUACAUGAGGAUCACCCAUGUAAAGA [EXC - 4] | 26.9 nM
CUCUUGUGAGGAUAUCGAAGAAAAGAAAAGAAAGAAAAGAACGAGAAGGCACAUGAGGAUCACCCAUGUAAGAA [EteRNA is fun!] | 53.1 nM
AAAAAGGGAGGAUAUGCAUACACACAAAAAAAAAAAAAAAAACAUGAGGAUCACCCAUGUAGAAGGCCCAAAAA [Dora Explored 4 - Jieux - Exclusion 2] | 21.1 nM
AAAAGGAAAGGAUAUGCAGACUGGGUCACCCAGAUGUAUGAACAUGAGGAUCACCCAUGUAGAAGGUUCAAAAG [Ribiquon] | 36.6 nM
AAAAGAAAAGGAUAUAAAAAGAAAAGUCAGGAUAUAGGAAACUAGAAGGGACAUGAGGAUCACCCAUGUAAAAG [Meechl Ex4 R2 m2] | 35.9 nM
AAGAAACAUGAGGAUCACCCAUGUGAGGAUAUGCAAGAAAGAAAGAAAGAAAGAAGAAGCAGAAGGCACAAAGG [Gaius Turranius] | 42.4 nM
AUAAACUGAGGAUAUACAUGAGGAUCACCCAUGUAAAAAAAAAAAUGAUCCUCAAAAAGUAGAAGGCAGAAUAA [JR_Exc003_Sub016] | 23.4 nM

Sequence | apparent KD of MS2 coat protein
GAAAAACAUGAGGAUCACCCAUGUAAGGAUAUGCUAAAAAACGCAAAAAAAGCGAAUAGCAGAAGGUACAAAAA [Mat - Exclusion 1 - Eli mod - D83] | 20.6 nM
GUCAGCUGAGGAUAUACAGGUGAUGCCGCAUAACAAAAUAUACAUGAGGAUCACCCAUGUAGAAGGCGGAAGAC [Zalaa] | 73.4 nM
UCCUCACAUGAGGAUCACCCAUGUGAGGAUAUCUGAAAAAAAAAAAAAAAAAAAAAUCAGAGAAGGCACAUGGG [Design 11: Super Stable Short Helix 1] | 37.1 nM
AAAAAGUGAGGAUAUACAUGAGGAUCACCCAUGUGUUAAAAAAAAAGGGUGGAAGAAAGUAGAAGGCACCAAAA [Ex 3 May 50] | 33.7 nM
GCAAAGUGAGGAUAUACGCGAACAAAAAUAAAAAAGAAAGCGUAGAAGGCACAUGAGGAUCACCCAUGUCCAGC [Mat - Exaclusion 4 - Eli mod - D77] | 23.7 nM
AAAAAUUGAGGAUAUACAUGAGGAUCACCCAUGUUAGACCUAAAAAAAGGGAAAGAAAGUAGAAGGCAAUAAAA [Ex 3 May 28] | 14.6 nM
AAGAAGCAAGGAUAUACAUGAGGAUCACCCAUGUAAAAGAAAGAAAAGGGAAAGAAAAGUAGAAGGUGCAAGAA [Menmaatre Seti I] | 21.6 nM
AAAGGACGAGGAUAUACAUGAGGAUCACCCAUGUAAAAAGCGUAAUAAAAGAACUUAUGUAGAAGGCGUCCAAA [Meechl Ex3 2 R2 v1] | 45 nM
AACAGUACAGGAUAUACAUGAGGAUCACCCAUGUAGAGAGAAUAAAACAAAAAUAAAUGUAGAAGGGUACUGAA [Mat - Exclusion 3 - Eli mod - D68] | 24.5 nM
AACGGGCUAGGAUAUACACAAGCCUCAGAACAAAUAAACAAACAUGAGGAUCACCCAUGUAGAAGGAGCGCAAA [Lesocerean] | 30.6 nM
AUCAUGUAAGGAUAUUUAAGAAAAGAAAAGAAAGAAAAGAAAAAGAAGGUACAUGAGGAUCACCCAUGUAAGAA [EteRNA is fun!] | 27.1 nM
AAAAAACAUGAGGAUCACCCAUGUAAGGAUAUGCUCGUGCGAAAAGCACAAAAAAAGAGCAGAAGGUACAAAAA [66%, Wbt, 39] | 15.2 nM
AACAGUACAGGAUAUACAUGAGGAUCACCCAUGUGAAAAUUAAGUGGCGUACCACAGUGUAGAAGGGUACUGGA [Moding Maslow Revisited (73) 25] | 87.9 nM
AAAAAGUGAGGAUAUACAUGAGGAUCACCCAUGUGAAAUCGGAAAAAAAACGAAAAAAGUAGAAGGCACAAAAA [Fiskers Exclusion 3 D3] | 19.1 nM
AAGAAACGAGGAUAUACAAAAUAAAAGAAAAGAAAGAAAGAACAUGAGGAUCACCCAUGUAGAAGGCGUAAGAA [Wahibre Ibiau] | 44.6 nM
AAGAAUAGAGGAUAUACAAGGAAGAAAGAAAAGAAAAGAAAACAUGAGGAUCACCCAUGUAGAAGGCUAUAGAA [EteRNA is fun!] | 30.9 nM
AAUAGUGAAGGAUAUACUGGAGGAGUACGAUAAAAGAAAGAACAUGAGGAUCACCCAUGUAGAAGGUCAGAAGU [JR_Exc002_Sub1227] | 22.9 nM
GCUUGGGUAGGAUAUACAUGAGGAUCACCCAUGUGAGAGAAAAAAGUGAGAAAGAAAAGUAGAAGGACCUGAGG [salish99-ex3-107] | 123 nM
AAAAAUAGAGGAUAUACAUGAAAAAAAAAAAAAAAAAAAAAACAUGAGGAUCACCCAUGUAGAAGGCUAAAAAA [double AU!] | 30.8 nM
AACUGACAUGAGGAUCACCCAUGUCAGGAUAUGCUUCAUAAAAAAAAAAAAAAAUGAUGCAGAAGGGACAUGGG [Design 32 :P Sub-opt 8] | 41.6 nM
AGCUAGUGAGGAUAUACGAACAUGUCAAAAGACGUGAAGAAACAUGAGGAUCACCCAUGUAGAAGGCACUAGCA [Mat - Exclusion 2 - JL-Eli mod - D55] | 15.5 nM
AGAAAUGUAGGAUAUACAUGAGGAUCACCCAUGUGGGAGGAGGAGCAAACAAGACGAGGUAGAAGGACAACGAC [JR_Exc003-Sub903] | 73.5 nM
